Columns and labels:
[1] = biological target: TCblR with the cytoplasmic tail deleted, membrane-anchored on HEK293 cells (human) (UniProt Q9NPF0); experiment: TC-[57Co]Cbl on HEK293 cells expressing TCblR with the cytoplasmic tail deleted, surface counts released by trypsin/EDTA
[2] = biological target: human transcobalamin receptor (TCblR/CD320), full length, on cells (human) (UniProt Q9NPF0); experiment: TC-[57Co]Cbl on normal and TCblR overexpressing HEK 293 cells, 1 hour at 37°C, surface counts released by trypsin/EDTA

Chain of UniProt Q9NPF0 (Q9NPF0 36-282 limits assumed): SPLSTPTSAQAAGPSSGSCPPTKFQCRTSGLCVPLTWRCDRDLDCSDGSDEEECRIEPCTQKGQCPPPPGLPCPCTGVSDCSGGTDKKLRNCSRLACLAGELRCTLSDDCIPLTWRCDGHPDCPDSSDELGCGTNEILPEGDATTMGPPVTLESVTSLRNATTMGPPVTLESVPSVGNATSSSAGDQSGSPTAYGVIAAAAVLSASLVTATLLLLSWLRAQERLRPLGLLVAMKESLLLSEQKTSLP

% of the TCblR-bound radiolabel remaining on the cell surface [1]: 80%
% of the radiolabel on the membrane [2]: 37 to 43%
B1: transcobalamin saturated with cobalamin (TC-Cbl) (ligand, human, UniProt P20062 19-427, looked up)
chain: EMCEIPEMDSHLVEKLGQHLLPWMDRLSLEHLNPSIYVGLRLSSLQAGTKEDLYLHSLKLGYQQCLLGSAFSEDDGDCQGKPSMGQLALYLLALRANCEFVRGHKGDRLVSQLKWFLEDEKRAIGHDHKGHPHTSYYQYGLGILALCLHQKRVHDSVVDKLLYAVEPFHQGHHSVDTAAMAGLAFTCLKRSNFNPGRRQRITMAIRTVREEILKAQTPEGHFGNVYSTPLALQFLMTSPMRGAELGTACLKARVALLASLQDGAFQNALMISQLLPVLNHKTYIDLIFPDCLAPRVMLEPAAETIPQTQEIISVTLQVLSLLPPYRQSISVLAGSTVEDVLKKAHELGGFTYETQASLSGPYLTSVMGKAAGEREFWQLLRDPNTPLLQGIADYRPKDGETIELRLVSW
modifications: cobalamin bound non-covalently ([57Co]Cbl in the radio assays)
